Among the data in the RNAGym collection of RNA variant scans (doi:10.1093/molbev/msab373) are reverse-splicing fitness values, retold here.

B1: Azoarcus group I ribozyme (parent)
chain: GUGCCUUGCGCCGGGAAACCACGCAAGGGAUGGUGUCAAAUUCGGCGAAACCUAAGCGCCCGCCCGGGCGUAUGGCAACGCCGAGCCAAGCUUCGGCGCCUGCGCCGAUGAAGGUGUAGAGACUAGACGGCACCCACCUAAGGCAAACGCUAUGGUGAAGGCAUAGUCCAGGGAGUGGCGAAAGUCACACAAACCGG

This series covers variants of B1. Put plainly: reverse-splicing fitness (ratio to wild type); higher = more active; in vitro selection; Mg2+ level not given. The procedure, abridged:
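An in vitro group I ribozyme library with randomized positions was T7-transcribed and gel-purified. In triplicate, 10 pmol RNA in EPPS pH 7.5 was reacted with 50 pmoles of a 30-nt RNA substrate for 1 h at 37 °C across several added MgCl2 levels (1–48 mM), then stopped with EDTA. Products were reverse transcribed from a substrate-complementary primer, PCR-amplified and sequenced (HiSeq 4000). Fitness is a variant's read proportion after selection over that before, normalised to wild type.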
With C82U A145U C150U U176C, the reverse-splicing fitness is 0.346.
Regarding C82U A120U C150G C169G U176C, the reverse-splicing fitness turned out to be 0.00212.
As for C82U A120U C150G C169G U176A, the reverse-splicing fitness worked out at 0.00396.
For C82U A120U C150G C169G U176G the value was 0.0022.
The figure for C82U A120U C150U U176G is 0.00728; for C82U A120U C150U U176A it is 0.0245.
The figure for C82U A120U C150U U176C is 0.0451; for C82U A120U C150A C169G it is 0.00313.
Regarding C82U A120U C150A C169U, the reverse-splicing fitness stood at 0.00341.
On to C82U A120U C150A C169A, for which the reverse-splicing fitness worked out at 0.00297.
Consider C82U A120U C150G C169U, for which the reverse-splicing fitness is 0.00386.
The figure for C82U A120U C150G C169A is 0.00679; for C82U A120U C150G C169G it is 0.0055; for C82U A120U A145U C169G U176A it is 0.00182.
As to C82U A120U A145U C169G U176G, the reverse-splicing fitness amounted to 0.0013.
For C82U A120U A145U C169G U176C the value was 0.00267; for C82U A145G C150A U176C, 0.0964.
With C82U A145G C150A U176G, the reverse-splicing fitness stood at 0.0228.
As for C82U A145G C150A U176A, the reverse-splicing fitness was 0.0793.
Turning to C82U A120U C150A C169G U176C, the reverse-splicing fitness turned out to be 0.00268.
Consider C82U A120U C150A C169G U176A, for which the reverse-splicing fitness turned out to be 0.00443.
Take C82U A120U C150A C169G U176G: the reverse-splicing fitness came to 0.00171.
For the variant C82U A120U C150A C169A U176C, the reverse-splicing fitness was determined as 0.0026.
Consider C82U A120U C150A C169A U176A, for which the reverse-splicing fitness was 0.00373.
C82U A120U C150A C169A U176G: the reverse-splicing fitness was determined as 0.00199.
As to C82U C150A C169U, the reverse-splicing fitness was 0.0105.
In the case of C82U C150A C169G, the reverse-splicing fitness worked out at 0.00731.
On to C82U C150A C169A, for which the reverse-splicing fitness came out at 0.0107.
For the variant C82U A145G C150U C169G U176A, the reverse-splicing fitness is 0.0129.
As to C82U A145G C150U C169G U176C, the reverse-splicing fitness came to 0.0172.
For the variant C82U A145G C150U C169G U176G, the reverse-splicing fitness was 0.00503.
With C82U A145U C169A, the reverse-splicing fitness came out at 0.00801.
With C82U A145U C169G, the reverse-splicing fitness was 0.00906.
Take C82U A145U C169U: the reverse-splicing fitness was 0.0139.
As to C82U C150G C169G, the reverse-splicing fitness was 0.00776.
The figure for C82U C150G C169A is 0.00916; for C82U C150G C169U it is 0.00789; for C82U A145U C169G U176C it is 0.00956.
As for C82U A145U C169G U176G, the reverse-splicing fitness was determined as 0.00447.
For the variant C82U A145U C169G U176A, the reverse-splicing fitness was determined as 0.00811.
Take C82U A145G C169G U176C: the reverse-splicing fitness came to 0.0258.
Regarding C82U A145G C169G U176A, the reverse-splicing fitness came out at 0.0184.
As for C82U A145G C169G U176G, the reverse-splicing fitness worked out at 0.00452.
C82U A145C C150U C169U U176G: the reverse-splicing fitness worked out at 0.00478.
In the case of C82U A145C C150U C169U U176C, the reverse-splicing fitness worked out at 0.00673.
With C82U A145C C150U C169U U176A, the reverse-splicing fitness is 0.0121.
Take C82U A145G C150A C169A U176G: the reverse-splicing fitness came to 0.00596.
For the variant C82U A145G C150A C169A U176C, the reverse-splicing fitness was 0.0216.
For C82U A145G C150A C169A U176A the value was 0.0196; for C82U A145G C169U, 0.0143.
Consider C82U A145G C169G, for which the reverse-splicing fitness was determined as 0.0106.
For C82U A145G C169A, the reverse-splicing fitness came out at 0.00962.
C82U A145G C150G U176A: the reverse-splicing fitness turned out to be 0.0372.
In the case of C82U A145G C150G U176G, the reverse-splicing fitness amounted to 0.0108.
As for C82U A145G C150G U176C, the reverse-splicing fitness was 0.0584.
As to C82U A145G C150A C169G, the reverse-splicing fitness is 0.00784.
Consider C82U A145G C150A C169U, for which the reverse-splicing fitness came out at 0.0093.
In the case of C82U A145G C150A C169A, the reverse-splicing fitness was found to be 0.0109.
C82U A145C C150G C169G U176A: the reverse-splicing fitness stood at 0.00879.
As to C82U A145C C150G C169G U176G, the reverse-splicing fitness came to 0.00454.
The figure for C82U A145C C150G C169G U176C is 0.00649; for C82U C150U U176A it is 0.238.
The figure for C82U C150U U176C is 0.294; for C82U C150U U176G it is 0.0675.
Consider C82U A145G C150A, for which the reverse-splicing fitness stood at 0.103.
Consider C82U A145G C150U, for which the reverse-splicing fitness turned out to be 0.527.
With C82U A145G C150G, the reverse-splicing fitness came out at 0.0812.
In the case of C82U A145C C150G C169A U176A, the reverse-splicing fitness worked out at 0.00717.
On to C82U A145C C150G C169A U176C, for which the reverse-splicing fitness was 0.00546.
For C82U A145C C150G C169A U176G the value was 0.0049; for C82U A145U C150U C169A U176A, 0.0115; for C82U A145U C150U C169A U176C, 0.00789.
On to C82U A145U C150U C169A U176G, for which the reverse-splicing fitness was 0.0048.
For C82U A145U C150G U176A the value was 0.0424; for C82U A145U C150G U176G, 0.0104.
Regarding C82U A145U C150G U176C, the reverse-splicing fitness turned out to be 0.0567.
For C82U A145C C150U U176A, the reverse-splicing fitness worked out at 0.114.
On to C82U A145C C150U U176G, for which the reverse-splicing fitness came to 0.0408.
With C82U A145C C150U U176C, the reverse-splicing fitness worked out at 0.127.
Regarding C82U A145G C150U C169A U176C, the reverse-splicing fitness was 0.0136.
In the case of C82U A145G C150U C169A U176A, the reverse-splicing fitness was 0.0158.
Consider C82U A145G C150U C169A U176G, for which the reverse-splicing fitness amounted to 0.00522.
As for C82U A145C C150A U176A, the reverse-splicing fitness was determined as 0.031.
Take C82U A145C C150A U176C: the reverse-splicing fitness stood at 0.0348.
